Assay results reported in PMC9605988, “Juxtaposition of Bub1 and Cdc20 on phosphorylated Mad1 during catalytic mitotic checkpoint complex assembly” (Nature Communications, 2022).
Entries after “also recorded” stand apart in the source; their conditions may differ.

Tests used:
pMad1CTD (Mad1CTD pT716) = assay: SEC-MALS, Cdc20N with pMad1CTD; assay type: binding, human
Description: (§1) Size-exclusion chromatography coupled with multi-angle static light scattering (SEC-MALS), was performed using an Agilent 1200 series LC system with an online Dawn Helios ii system (Wyatt) equipped with a QELS + module (Wyatt) and an Optilab rEX differential refractive index detector (Wyatt). About 100 μl purified protein at ~3.0 mg/ml was auto-injected onto Superdex 75 or a Superdex 200 Increase 10/300 GL column (GE Healthcare) and run at 0.5 ml/min. The molecular masses were analysed with ASTRA 7.3.0.11 (Wyatt). Data were plotted using Prism 8.4.3 (GraphPad Software, Inc). Purified Cdc20^N and Cdc20^N mutants were incubated with Mad1^CTD wild-type or mutants at a 1:1.2 ratio of Mad1^CTD dimer to Cdc20^N.

[1] = Aggregation or non-specific binding at high concentration in the fluorescence anisotropy assay; assay type: physicochemical; details: further titration of Cdc20N to saturation; total fluorescence intensity
Description: (§2) All reactions were completed in a buffer of 25 mM HEPES pH 7.75, 1 mM TCEP, 100 mM NaCl, 0.05% (v/v) Tween-20. […] Measurements were performed with a PheraStar plate reader FSX plate reader (BMG Labtech) using an optic module for λex = 485 nm, λem = 520 nm. Reactions were carried out in a total volume of 40 μl at 25 °C in a black, flat-bottom, non-binding surface 384-well plate (Corning). All experiments were performed as technical triplicates and data were analysed in PRISM 9.3.1 (GraphPad Software).

[2] = biological target: T1, Mad1CTD (unphosphorylated) (Homo sapiens, UniProt Q9Y6D9); assay: 1H,15N HSQC / CON NMR titration with unphosphorylated Mad1CTD; assay type: binding; details: residues 616-660 of Mad1CTD in HSQC; N-terminal half of Cdc20N in CON
T1 construct: the C-terminal domain of Mad1 (residue 597–718); made in house
T1 sequence (Q9Y6D9 597-718): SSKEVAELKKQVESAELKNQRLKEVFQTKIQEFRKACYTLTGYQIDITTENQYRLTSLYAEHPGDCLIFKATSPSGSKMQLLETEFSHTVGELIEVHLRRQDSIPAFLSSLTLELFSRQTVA
Description: (§3) Uniformly-labelled proteins were expressed in M9 minimal media (6 g/L Na2HPO4, 3 g/L KH2PO4, 0.5 g/L NaCl) supplemented with 1.7 g/L yeast nitrogen base without NH4Cl and amino acids (Sigma Y1251). 1 g/L ^15NH4Cl and 4 g/L unlabelled glucose were supplemented for ^15N labelling. For ^13C/ ^15N double-labelled samples, unlabelled glucose was replaced with 3 g/L ^13C-glucose. Prior to all NMR experiments, proteins were dialysed into 20 mM HEPES, pH 7.0, 100 mM NaCl and 1 mM TCEP.
The following protein concentrations were used in NMR studies: ^1H,^15N HSQC of Mad1^CTD were collected with a 100 µM sample, whereas a 50 µM sample was used for titrations with Cdc20^N and Cdc20^α1. […] To follow the O-to-C conversion of Mad2, the samples were prepared on ice and monitored using BEST ^1H,^15N-TROSY HSQC. […]
(§4) For binding studies, the relative peak intensities were normalised to the C-terminal residue Ala718 of Mad1^CTD or Gly73 of Cdc20^N and expressed as PIbound/PIfree, with PIfree and PIbound being the peak heights of the free and bound forms, respectively. Weighted chemical shift perturbations were calculated using the equation[63]: Δδ = [(ΔδHNWHN)^2 + (ΔδNWN)^2)^2]^1/2 where ΔδHN and ΔδN are the chemical shift perturbations in ^1H and ^15N dimensions respectively. The weight factors were determined from the average variances of chemical shifts in the BMRB database, where WHN = 1 and WN = 0.16.

pMad1CTD homodimer = assay: AUC-SE (sedimentation equilibrium) of pMad1CTD and Cdc20N; assay type: binding, human; details: for calculated mass of major species (Cdc20N:pMad1CTD): 20 °C, expected 35.7 kDa
Description: Sedimentation equilibrium experiments were carried out in a buffer of 20 mM HEPES pH 7.5, 100 mM NaCl and 1 mM TCEP. Samples were loaded into 12 mm six-sector cells, placed in an An-50Ti rotor and centrifugated at 10,200, 12,200 and 21,000 rpm at 20 °C until equilibrium had been reached using an Optima XL-I analytical ultracentrifuge (Beckman). The data were analysed in SEDPHAT 15.2b[68]. The partial-specific volumes (v-bar) were calculated using Sednterp[69]. The density and viscosity of the buffer were determined with a DMA 4500 M density metre (Anton Parr) and an AMVn viscometer (Anton Paar). Data were plotted with the program GUSSI[70].

pMad1CTD = assay: 1H,15N HSQC / CON NMR titration with pMad1CTD; assay type: binding, human; details: pMad1CTD
Description: as §3
The following protein concentrations were used in NMR studies: ^1H,^15N HSQC of Mad1^CTD were collected with a 100 µM sample, whereas a 50 µM sample was used for titrations with Cdc20^N and Cdc20^α1. Cdc20^Box1 peptide was added at mM concentrations to minimise dilution during titration. […] Mad1^CTD was concentrated to 3 mM for titrations into Cdc20^N. ^1H,^15N HSQC of Mad2 were collected at 100 µM. All Mad2 NMR samples contain an R133A mutation to prevent Mad2 dimerisation. The C-Mad2 sample additionally contains an L13A mutation which favours the C-Mad2 state. Cdc20^MIM-bound C-Mad2 sample was prepared by adding a 1:2 excess of Cdc20^MIM peptide to an O-Mad2 sample with R133A mutation. To follow the O-to-C conversion of Mad2, the samples were prepared on ice and monitored using BEST ^1H,^15N-TROSY HSQC. The spectra were acquired with 16 scans and a recycle delay of 400 msec, giving an experimental time of 12 min per spectrum.
Mad1^CTD and Mad2 experiments were performed using an in-house 800 MHz Avance III spectrometer and Cdc20^N experiments were performed using an in-house 700 MHz Avance II + spectrometer, both equipped with triple resonance TCI CryoProbes. To retrieve signals that suffer from exchange broadening, we also utilised the Bruker 950 MHz Avance III spectrometer located at MRC Biomedical NMR Centre (Francis Crick Institute). Mad1^CTD and Mad2 spectra were collected at 298 K. Cdc20^N spectra were collected at 278 K to minimise exchange broadening for the largely disordered Cdc20^N.
as §4

[3] = test system: AF488-Bub1CD1:Mad1CTD complex (unphosphorylated); assay: Fluorescence anisotropy: Cdc20N titrated into preformed AF488-Bub1CD1:Mad1CTD complex; assay type: binding, human
Description: as §2

[4] = biological target: T1, Mad1CTD (unphosphorylated); assay: SEC-MALS, Cdc20N with unphosphorylated Mad1CTD; assay type: binding; details: 1:1.2 ratio Mad1CTD dimer to Cdc20N
Description: as §1

[5] = test system: Mad1CTD R617E/K619D mutant; assay: SEC-MALS, Cdc20N with Mad1CTD R617E/K619D; assay type: binding, human; details: 1:1.2 ratio Mad1CTD dimer to Cdc20N
Description: as §1

[6] = test system: AF488-Bub1CD1:pMad1CTD complex; assay: Fluorescence anisotropy: Cdc20N titrated into preformed AF488-Bub1CD1:pMad1CTD complex; assay type: binding, human; details: preformed AF488-Bub1CD1:pMad1CTD

B1: Cdc20^N: N-terminal truncation of human Cdc20 (residues 1–73) (protein)
chain: MAQFAFESDLHSLLQLDAPIPNAPPARWQRKAKEAAGPAPSPMRAANRSHSAGRTPGRTPGKSSSKVQTTPSK
modifications: left off: His6, N-terminal, cleaved | MBP, N-terminal, cleaved
binding by SEC-MALS (pMad1CTD (Mad1CTD pT716); 1:1.2 ratio Mad1CTD dimer to Cdc20N): formed a stable complex | observed mass of pMad1CTD:Cdc20N complex (pMad1CTD (Mad1CTD pT716); SEC-MALS, expected 36 kDa for pMad1CTD dimer with one Cdc20N): 38 kDa | aggregation or non-specific binding to the plate [1]: large increases in the total fluorescence intensity indicating aggregation or non-specific binding to the plate | NMR signal attenuation / line broadening [2]: Significant signal attenuation; also recorded: substantial signal attenuation | calculated mass of major species (Cdc20N:pMad1CTD) (pMad1CTD homodimer; 20 µM Mad1CTD + 40 µM Cdc20N): 32.6 kDa | calculated mass of major species (Cdc20N:pMad1CTD) (pMad1CTD homodimer; 20 µM Mad1CTD + 80 µM Cdc20N): 35.9 kDa | stoichiometry on pMad1CTD homodimer (pMad1CTD homodimer; even with four-fold molar excess of Cdc20N): only a single copy of Cdc20^N bound | NMR signal attenuation / line broadening (pMad1CTD): more pronounced and extensive; also recorded: More significant signal attenuation | change in fluorescence anisotropy on Cdc20N titration (competition test) [3]: increased the fluorescence anisotropy | binding by SEC-MALS [4]: did not bind; also recorded: no binding | binding by SEC-MALS [5]: did not bind | change in fluorescence anisotropy on Cdc20N titration (competition test) [6]: increased the fluorescence anisotropy
